Laboratory results taken from article PMC4208696 (Biophysical chemistry, 2014).
Read-outs that look alike come from different tables or passages of the source.

What was measured:
Assay in all cases: fluorescence polarisation
[1] = target: T1, CaM C-domain fragment, residues 76 to 148 (CaM_(76–148)) (mammalian (no species named), UniProt P0DP23 77-149)
[2] = target: T2, CaM N-domain fragment, residues 1 to 80 (CaM_(1–80)) (mammalian (no species named), UniProt P0DP23 2-81)
[3] = target: T3, full-length mammalian calmodulin (CaM_(1–148)) (mammalian (no species named), UniProt P0DP23 1-149)
[4] = target: T1, CaM C-domain fragment, residues 76 to …; remark: listed apart in the source
[5] = target: T2, CaM N-domain fragment, residues 1 to 80 …; remark: listed apart in the source
[6] = target: T3, full-length mammalian calmodulin …; remark: listed apart in the source

Row | Binder | Kd [1] [µM] | Kd [2] [mM] | Kd [3] [µM] | Kd [4] [µM] | Kd [5] [µM] | Kd [6] [nM]
1 | {5,6‑carboxyfluorescein}-KSKKAVWHKLLSKQRRRAVVACFRMTPLYN-NH2 [Fl–hRyR1(3614–3643)p: hRyR1(3614–3643)p with a 5,6-carboxyfluorescein moiety at the N-terminus] | 24.9 ± 4.27 | ~1.5 | 6.79 ± 3.05 | ≤ 0.01 | 2.5 ± 0.83 | ≤ 1
2 | {5,6‑carboxyfluorescein}-SRYGLLIKAFSMTAAETARRTREFR-NH2 [Fl–hRyR1(1975–1999)p: hRyR1(1975–1999)p with a 5,6-carboxyfluorescein moiety at the N-terminus] | ~650 | ~7 | ~850 | 9.21 ± 0.82 | 12.5 ± 1.95 | 660 ± 10
